Measurements reported in patent US7432061B2, “Assays for measuring matrix metalloproteinase activities” (BioZyme, Inc., priority 2002, dated 2008).

Target: T1, collagenase 1 (Homo sapiens, UniProt P03956)
T1 sequence (P03956 100-469): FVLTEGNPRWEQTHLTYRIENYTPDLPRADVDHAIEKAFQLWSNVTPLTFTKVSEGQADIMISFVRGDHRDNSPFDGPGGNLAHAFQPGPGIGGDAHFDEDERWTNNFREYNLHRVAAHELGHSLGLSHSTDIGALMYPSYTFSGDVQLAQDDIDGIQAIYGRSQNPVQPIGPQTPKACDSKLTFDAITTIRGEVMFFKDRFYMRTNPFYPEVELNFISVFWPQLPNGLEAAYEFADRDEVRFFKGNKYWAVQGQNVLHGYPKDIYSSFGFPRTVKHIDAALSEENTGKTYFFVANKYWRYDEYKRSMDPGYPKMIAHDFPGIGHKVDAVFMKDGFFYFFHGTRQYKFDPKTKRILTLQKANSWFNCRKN
Test: Inhibition with type II collagen, FlSub3 cleavage
Assay type: biochemical
Settings: for Improvement In Selectivity (Col-1 v Col-3): 44 ug/ml Type II Collagen vs no Type II Collagen, FlSb3; for Average Percent Inhibition from 1.1 to 6.6 Hours / Average Percent Inhibition: COL1(1.25 nM)
Method: In a 96 well plate, collagenase 3 (0.013 nM), collagenase 1 (1.25 nM), stromelysin 1 (0.8 nM), gelatinase A (0.025 nM), or gelatinase B (0.008 nM) were reacted with 20 uM FlSub3 in standard assay buffer in the presence of varying concentrations of bovine type II collagen (0.18-44 ug/ml). The type II collagen, a 1 mg/ml stock in 0.5M acetic acid, was transferred into assay buffer by passing the material through a biospin P6 column from Amersham. The reaction was initiated by addition of substrate to enzyme containing either buffer or an appropriate amount of type II collagen. Data points were taken every 15 min over a period of 15 hours using an excitation and emission wavelength of 350 and 485 nm respectively. The usable data (1-6 hours), was taken and the percent inhibition by type II collagen was calculated for each enzyme and plotted as a function of inhibitor concentration and time in the assay. It should be noted that the percent inhibition varies with time as the bovine substrate is consumed during the reaction course.

Type II Collagen: bovine type II collagen, full length MMP substrate used as inhibitor of gelatinases
Improvement In Selectivity (Col-1 v Col-3): 2.5 fold | Improvement In Selectivity (Col-1 v Col-3) (listed as collagen): four | Average Percent Inhibition from 1.1 to 6.6 Hours (Type II Collagen 0.18 ug/ml): 0% | Average Percent Inhibition from 1.1 to 6.6 Hours (Type II Collagen 0.54 ug/ml): 3% | Average Percent Inhibition from 1.1 to 6.6 Hours (Type II Collagen 1.63 ug/ml): 0% | Average Percent Inhibition from 1.1 to 6.6 Hours (Type II Collagen 4.89 ug/ml): 2% | Average Percent Inhibition from 1.1 to 6.6 Hours (Type II Collagen 14.67 ug/ml): 10% | Average Percent Inhibition from 1.1 to 6.6 Hours (Type II Collagen 44.00 ug/ml): 15% | Average Percent Inhibition (TypeIICOL(1.6 ug/ul), FISb3, hour 0.10 to 1.10): 19% | Average Percent Inhibition (TypeIICOL(1.6 ug/ul), FISb3, hour 1.10 to 2.10): 6% | Average Percent Inhibition (TypeIICOL(1.6 ug/ul), FISb3, hour 1.10 to 6.60): 0% | Average Percent Inhibition (TypeIICOL(1.6 ug/ul), FISb3, hour 2.10 to 3.10): 0% | Average Percent Inhibition (TypeIICOL(1.6 ug/ul), FISb3, hour 3.10 to 4.10): −2% | Average Percent Inhibition (TypeIICOL(1.6 ug/ul), FISb3, hour 4.10 to 5.10): −3% | Average Percent Inhibition (TypeIICOL(1.6 ug/ul), FISb3, hour 5.10 to 6.10): −4% | Average Percent Inhibition (TypeIICOL(4.9 ug/ul), FISb3, hour 0.10 to 1.10): 37% | Average Percent Inhibition (TypeIICOL(4.9 ug/ul), FISb3, hour 1.10 to 2.10): 13% | Average Percent Inhibition (TypeIICOL(4.9 ug/ul), FISb3, hour 1.10 to 6.60): 2% | Average Percent Inhibition (TypeIICOL(4.9 ug/ul), FISb3, hour 2.10 to 3.10): 3% | Average Percent Inhibition (TypeIICOL(4.9 ug/ul), FISb3, hour 3.10 to 4.10): 0% | Average Percent Inhibition (TypeIICOL(4.9 ug/ul), FISb3, hour 4.10 to 5.10): −2% | Average Percent Inhibition (TypeIICOL(4.9 ug/ul), FISb3, hour 5.10 to 6.10): −4% | Average Percent Inhibition (TypeIICOL(15 ug/ul), FISb3, hour 0.10 to 1.10): 44% | Average Percent Inhibition (TypeIICOL(15 ug/ul), FISb3, hour 1.10 to 2.10): 21% | Average Percent Inhibition (TypeIICOL(15 ug/ul), FISb3, hour 1.10 to 6.60): 10% | Average Percent Inhibition (TypeIICOL(15 ug/ul), FISb3, hour 2.10 to 3.10): 12% | Average Percent Inhibition (TypeIICOL(15 ug/ul), FISb3, hour 3.10 to 4.10): 8% | Average Percent Inhibition (TypeIICOL(15 ug/ul), FISb3, hour 4.10 to 5.10): 6% | Average Percent Inhibition (TypeIICOL(15 ug/ul), FISb3, hour 5.10 to 6.10): 4% | Average Percent Inhibition (TypeIICOL(44 ug/ul), FISb3, hour 0.10 to 1.10): 50% | Average Percent Inhibition (TypeIICOL(44 ug/ul), FISb3, hour 1.10 to 2.10): 29% | Average Percent Inhibition (TypeIICOL(44 ug/ul), FISb3, hour 1.10 to 6.60): 15% | Average Percent Inhibition (TypeIICOL(44 ug/ul), FISb3, hour 2.10 to 3.10): 18% | Average Percent Inhibition (TypeIICOL(44 ug/ul), FISb3, hour 3.10 to 4.10): 12% | Average Percent Inhibition (TypeIICOL(44 ug/ul), FISb3, hour 4.10 to 5.10): 9% | Average Percent Inhibition (TypeIICOL(44 ug/ul), FISb3, hour 5.10 to 6.10): 7% | Average Percent Inhibition (TypeIICOL(.18 ug/ul), FISb3, hour 0.10 to 1.10): 17% | Average Percent Inhibition (TypeIICOL(.18 ug/ul), FISb3, hour 1.10 to 2.10): 3% | Average Percent Inhibition (TypeIICOL(.18 ug/ul), FISb3, hour 1.10 to 6.60): 0% | Average Percent Inhibition (TypeIICOL(.18 ug/ul), FISb3, hour 2.10 to 3.10): 0% | Average Percent Inhibition (TypeIICOL(.18 ug/ul), FISb3, hour 3.10 to 4.10): −1% | Average Percent Inhibition (TypeIICOL(.18 ug/ul), FISb3, hour 4.10 to 5.10): −1% | Average Percent Inhibition (TypeIICOL(.18 ug/ul), FISb3, hour 5.10 to 6.10): −1% | Average Percent Inhibition (TypeIICOL(.55 ug/ul), FISb3, hour 0.10 to 1.10): 15% | Average Percent Inhibition (TypeIICOL(.55 ug/ul), FISb3, hour 1.10 to 2.10): 6% | Average Percent Inhibition (TypeIICOL(.55 ug/ul), FISb3, hour 1.10 to 6.60): 3% | Average Percent Inhibition (TypeIICOL(.55 ug/ul), FISb3, hour 2.10 to 3.10): 3% | Average Percent Inhibition (TypeIICOL(.55 ug/ul), FISb3, hour 3.10 to 4.10): 2% | Average Percent Inhibition (TypeIICOL(.55 ug/ul), FISb3, hour 4.10 to 5.10): 1% | Average Percent Inhibition (TypeIICOL(.55 ug/ul), FISb3, hour 5.10 to 6.10): 1% | inhibition of collagenase 1 by type II collagen (early timepoints, FlSub3): small but significant inhibition
